Results published in patent US6864054.

Target: endogenous p53 (MRC5.SV40 cells; U-2 OS cells) (UniProt P04637)
Experiment: cell-based or functional assay

Sequence of endogenous p53 (MRC5.SV40 cells; U-2 OS cells) (P04637 whole entry): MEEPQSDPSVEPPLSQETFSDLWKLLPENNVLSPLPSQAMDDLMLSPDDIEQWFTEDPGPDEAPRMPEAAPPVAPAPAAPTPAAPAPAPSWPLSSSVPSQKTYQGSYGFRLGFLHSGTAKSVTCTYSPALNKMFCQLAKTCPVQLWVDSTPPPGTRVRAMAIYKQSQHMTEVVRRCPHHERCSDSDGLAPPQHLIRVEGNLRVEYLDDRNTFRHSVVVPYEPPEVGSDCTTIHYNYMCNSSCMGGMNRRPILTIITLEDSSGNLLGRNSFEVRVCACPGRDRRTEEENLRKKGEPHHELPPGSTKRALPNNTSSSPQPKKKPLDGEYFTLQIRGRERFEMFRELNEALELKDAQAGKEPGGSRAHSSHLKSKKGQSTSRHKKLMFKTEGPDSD
Sequence of full-length CBP, P45481 2-2441 (P45481 2-2441 limits assumed): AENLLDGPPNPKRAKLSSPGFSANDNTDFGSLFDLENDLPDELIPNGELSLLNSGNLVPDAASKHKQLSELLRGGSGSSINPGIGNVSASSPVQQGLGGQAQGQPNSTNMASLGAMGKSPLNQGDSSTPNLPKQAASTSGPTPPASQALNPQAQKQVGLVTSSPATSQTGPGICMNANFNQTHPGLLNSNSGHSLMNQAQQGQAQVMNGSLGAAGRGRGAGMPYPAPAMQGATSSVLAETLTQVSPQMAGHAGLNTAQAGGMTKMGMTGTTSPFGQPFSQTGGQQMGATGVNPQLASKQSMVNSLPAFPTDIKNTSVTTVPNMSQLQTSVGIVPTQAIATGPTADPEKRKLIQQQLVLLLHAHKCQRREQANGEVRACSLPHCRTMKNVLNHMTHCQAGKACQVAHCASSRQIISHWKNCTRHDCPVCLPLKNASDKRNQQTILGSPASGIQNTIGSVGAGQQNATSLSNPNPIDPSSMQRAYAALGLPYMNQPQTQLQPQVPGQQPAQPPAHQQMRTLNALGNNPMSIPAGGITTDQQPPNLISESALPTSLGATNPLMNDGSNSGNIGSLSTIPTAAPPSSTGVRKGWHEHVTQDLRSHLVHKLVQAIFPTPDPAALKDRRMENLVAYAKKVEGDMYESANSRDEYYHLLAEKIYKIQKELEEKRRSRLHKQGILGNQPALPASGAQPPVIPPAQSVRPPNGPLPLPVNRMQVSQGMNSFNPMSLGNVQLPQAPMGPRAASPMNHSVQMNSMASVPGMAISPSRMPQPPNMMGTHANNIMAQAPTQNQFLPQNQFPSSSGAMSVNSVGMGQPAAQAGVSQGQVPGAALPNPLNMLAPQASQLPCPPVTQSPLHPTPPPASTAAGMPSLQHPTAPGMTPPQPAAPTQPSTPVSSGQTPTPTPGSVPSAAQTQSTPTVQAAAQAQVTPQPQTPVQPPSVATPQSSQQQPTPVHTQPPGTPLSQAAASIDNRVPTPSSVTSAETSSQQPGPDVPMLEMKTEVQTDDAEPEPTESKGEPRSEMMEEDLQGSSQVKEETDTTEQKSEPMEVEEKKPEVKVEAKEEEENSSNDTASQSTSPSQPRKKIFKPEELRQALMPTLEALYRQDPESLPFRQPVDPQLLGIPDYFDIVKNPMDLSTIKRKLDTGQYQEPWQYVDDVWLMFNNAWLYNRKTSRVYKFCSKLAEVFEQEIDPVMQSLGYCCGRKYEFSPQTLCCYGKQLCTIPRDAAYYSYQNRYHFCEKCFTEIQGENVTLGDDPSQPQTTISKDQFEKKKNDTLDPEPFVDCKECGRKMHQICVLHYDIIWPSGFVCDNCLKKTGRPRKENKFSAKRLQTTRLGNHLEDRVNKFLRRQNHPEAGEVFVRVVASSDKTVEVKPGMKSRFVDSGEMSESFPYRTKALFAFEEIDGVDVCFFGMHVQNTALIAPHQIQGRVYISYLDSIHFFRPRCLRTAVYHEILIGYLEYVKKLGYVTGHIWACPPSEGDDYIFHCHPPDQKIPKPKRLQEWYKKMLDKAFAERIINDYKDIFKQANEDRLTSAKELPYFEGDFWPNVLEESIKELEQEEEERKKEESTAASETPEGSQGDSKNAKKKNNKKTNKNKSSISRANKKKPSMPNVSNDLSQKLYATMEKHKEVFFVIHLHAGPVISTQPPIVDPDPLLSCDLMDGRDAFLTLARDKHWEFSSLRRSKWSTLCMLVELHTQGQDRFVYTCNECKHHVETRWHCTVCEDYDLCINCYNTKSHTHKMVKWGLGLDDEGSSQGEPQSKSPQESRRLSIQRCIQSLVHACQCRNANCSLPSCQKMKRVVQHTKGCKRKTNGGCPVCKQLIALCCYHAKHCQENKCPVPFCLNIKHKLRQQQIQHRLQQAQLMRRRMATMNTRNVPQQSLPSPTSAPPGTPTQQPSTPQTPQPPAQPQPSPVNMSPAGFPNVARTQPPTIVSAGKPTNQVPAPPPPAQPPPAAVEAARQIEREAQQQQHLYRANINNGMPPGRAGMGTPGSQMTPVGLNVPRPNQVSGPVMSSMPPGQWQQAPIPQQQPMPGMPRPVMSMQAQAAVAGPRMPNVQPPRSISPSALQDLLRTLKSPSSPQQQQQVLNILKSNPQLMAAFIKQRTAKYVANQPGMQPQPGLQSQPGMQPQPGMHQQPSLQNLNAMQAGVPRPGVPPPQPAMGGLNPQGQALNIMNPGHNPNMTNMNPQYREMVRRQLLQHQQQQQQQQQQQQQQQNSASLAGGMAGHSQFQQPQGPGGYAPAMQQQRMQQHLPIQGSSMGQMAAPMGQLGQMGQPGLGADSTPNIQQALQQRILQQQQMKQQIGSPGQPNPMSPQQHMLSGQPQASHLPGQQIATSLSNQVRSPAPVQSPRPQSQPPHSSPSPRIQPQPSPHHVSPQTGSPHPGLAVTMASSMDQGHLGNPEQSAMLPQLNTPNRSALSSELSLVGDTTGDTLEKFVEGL

p53-dependent transcription (PG13CAT reporter, U2-OS cells): 7 fold
Substance: full-length CBP, P45481 2-2441
